Assay results as given in the DeepSol protein solubility set.

assay: soluble on expression in E. coli; label from the status in PepcDB or PDB records

Soluble on expression in E. coli, not soluble:
MGSDKIHHHHHHMLQAFYTGLSGLNSYSKNLDNVSNNIANMNTAGYRGMDSFYQALGGDSDKPGLGAQISGLGYRFSVGDIRQTGNDFDLAITGTGFFALLDGEKVFYTRTGQFEFDQNNVLVDKNTGFKVAGIDSNGQLSEINLLSYQAIKPTATTKLSLTGNLSPLDDVHQISSAKMINSLGEEVDLSIKFTNEKATFPNQWKVEILDDKGIVLHSDSVKFGPDGTPEVGSGSFIFNLADSSGNTTPIDITVGTIGDFSAVTQTSATGVDSNVTLHAVDGKGVGQLVKRSFDPQGRVTLNYSNGDKVTPFTIAMVDFDDISTLSIESGTVFKASDLESRVLGKAGEGRFKQLATSSIEMSNVDLSQEFADMLVIQRGYQASSRILNVANQMIEQLYENTRGR, MGSDKIHHHHHHMLRLSEIKLPLDHPPEAITTAILQKLKIQADELLGYEIFKRSYDARKKDAIVWVYILDLKVKNEAQLLKRFQKDPHVNPTPDMSYRVVAQAPEGLTERPVVIGAGPCGMFAALTLAQMGFRPILFERGKTVRDRTADTFAFWKKRGEFNPESNAQFGEGGAGTFSDGKLYSQVRDPQYYGRKVLTELVNSGANPEILYVNKPHIGTFKLVGVVQQMRARIEALGGEIHFQSRVESLHIEDRQVRGLRLTNGDYIPARHVVLAIGHSARDTFQMLFDQGVYIEAKPFSIGFRIEHPQPLIDRARFGPFAGHKSLGAADYKLVHHCQNGRTVYSFCMCPGGLVVAATSEPGRVVTNGMSQYSRNERNANSGIVVGITPEDYPGHPLAGIDLQRRLEAKAFELGGGTYEAPGQLVGDFLAGRPSQHLGTVRPSYAPGVHLTDLSESLPDYAIAAIREALPAFNRQIQGFALPDAMLTGVETRTSSPVRIKRGEDFQSLNTTGLFPAGEGAGYAGGILSAGIDGIKVAEAVALAMLRSQPQTV, MGSDKIHHHHHHMLTWRKHGLIYSPQAHPPLIGGAGYAQSPQALVFDDFVRIYFSTRELDDKNNKFISRVSYVDMDKNLQEILKVSAAPVIAHAELGTFDEHGIFPFNVLRHNGAVMAWTTGWNRRVSVSVDTSIGLAISHDGGDTFQRHATGPVMSASLHEPYLVGDAFVQHIEGRFHMWYIYGVGWKRQQSDSPPDRIYKIAHAVSDDGIDWVRESKPIIADLLGDDECQALPTVIKVGNRYHMIFCYRECFDFRLGSGRGYRLGYAWSDDLVTWHRDDTQVPAVSESGEWDSEMQCYPHLFQCDEKVYLLYNGNAFGKEGFGLAELTACSE, MGSDKIHHHHHHMLYQGVSLILAPLLVFQGLNVRRTTPRLPEPEGERVGQTGANPALSLLILGDSAAAGVGVAFQQHALLGQVIEQLSPQLEFSYGLFAKTGSTTSTTLQALQEQIDIAHPILGQTHFDVIVTSLGVNDITSSISCEKWLLQQKALFELITKRYTPKLILVTALPPLGLFPALPHPLRWSLGQRANQFNRQLQQLLIKLNQQVDQPTDFRLIKLPLENPQPDITMLEFMRQVMASDGFHPGAPIYSAWANLVVEQIVGGIKSAAIA, MGSDKIHHHHHHMMGGKTLVLLDERLISLSMTDNRGFDADQVTLSVDDADGLLQLPPRGADLSVSIGWKGEALVYKGVFIVDEVAHSGPPDTLEVTARSADFRDEFNVKREISWHDLTVERVVSAIAHRYKLKPVISAQLMDLEIDHADQTQESDMSFLTRMAEMLGAIATVKNGCLLFILPGGGVSASGKPLPAAEITRSSGDRHSFRIADRDAYTGVRAYWLDLNFGKKKKVSVKRRKAKPKKEKSSSREGDYMEGEDGNVYVLRKTYQNETAAKRAAAAKWQQLQRGAAQFSITLARGRADLYPEVHVSVSGFKADIDNQEWIISRVEHVIDGSGFTSRLELEAKIADWIAESD, MGSDKIHHHHHHMMKAQFTLTPSESKRLIAKGVKALPILRKALQNHTIILAGGTTNGFLVEELLNETLAEKTRYTVGLIADGKTGESKEEQRIPPFIIAKGKALDRSLHWKDFLPQLEPGDVFIKGGNALDSTGLAAVLVSNSMAGTIGAALGPLYARGVRLVVPIGLEKLIPDVREAVEFMASAPADTALGAKTGLVPMLGATVVTEITALETLYQVTAKCIGAGGVAGSEGAVTLVIEGEAAEVESALSLIQSCKGEPPVR, MGSDKIHHHHHHMMLRASYGTIRKVNGNSSLEMDTAYLMLGERCVYNCLYCAQSRSSTSPSHFLSRVTWKEVSEDLLGKLNDRFKRVCIQVVSYPSYGKDLRLIIPRFRIPVSVSVRAVSIEEVVEYFELGADRVGIAVDVPNKTLFEKIRGGKYERHLHILEKVSEMFPGRITTHVIVGLGESDKDIVDFTVWARERNIVVSLFAFTPIKGTAFENRERPSLERYRKIQLVTYLLEKNLIKPENIIFDSNGKIIDVEWNGEFPEEALRTRGCPHCTRPYYNESPRGPIYNVHWR, MGSDKIHHHHHHMMNDRDERWDRIAGKLDTLLDRFDRFLDGHIPPPPPDGRLFERHLAFRWRRTGEGGAFLPVEHPHLPDLDDLMGIDLVRDELVRNTGQFVVGYPANNVLLWGERGTGKSTCVKGLLRRFSEEGLRLVEVLRDDLCTLPAIIAPLRKMPQRFILFCDDLSFGEGEGGYRELKVLLEGGIEERPSNILFYATSNRRHLLPERMEDNLGGEIHPEEAVSEKLSLADRFGLNLSFYSFDQDTYLAIVARYAEKFSLPMGGEALRREALQWAIFKGSRSGRSARQFVDDLAGRLRVALPAEK, MGSDKIHHHHHHMMNQFFEPPRVEALHVQNYRALQNVRLDSITPLTVLLGPNGSGKSTLVDVFAFLSECFGEGLRKAWDRRGRFRELRSRDSVGPIVIELQYREKPGTPLITYHLEIDEKDRGPVVKREFLRWKRTHPGAPFYFLDYREGVGRVITGEQPESQDKRIEKPLSGPDVLAVNTLGQLAENPRVIALRAFITSWHLSYLSADAARGNPEAGAEERLSQTGDNLANVIQYLGEEHPERLNKIFETLKRRVPRIEKVTSRPLDDGRLLLQVKDAPFSSPVLARFASDGTLKMLAYLILLYDPEPPQLIGIEEPENYLHPRLLPELAEECDMASERTQLIVTTHSPFFIDRLRPEQVRVLYRGADGYTRAKRVADMRGIGEFLEAGASLGDLWMEGHFDVGDPLAGEEGA, MGSDKIHHHHHHMMQNNPFPYSNTEKRYHTLNYHLREHFGHKVFKVALDGGFDCPNRDGTVAHGGCTFCSAAGSGDFAGNRTDDLITQFHDIKNRMHEKWKDGKYIAYFQAFTNTHAPVEVLREKFESVLALDDVVGISIATRPDCLPDDVVDYLAELNERTYLWVELGLQTVHERTALLINRAHDFNCYVEGVNKLRKHGIRVCSHIINGLPLEDRDMMMETAKAVADLDVQGIKIHLLHLLKGTPMVKQYEKGKLEFLSQDDYVQLVCDQLEIIPPEMIVHRITGDGPIELMIGPMWSVNKWEVLGAINKELENRGSYQGKFFQRLEEESAL, MGSDKIHHHHHHMMRLLCFIDYLGSGGAQRQLTFLARHLKKSGVDVEVLTYHESDFFIPVLAEAGINVETVRGGGRFTKVFSLRKSIRARKFDVLLAFLNAPALYAEIAALPRRRWGLVVSERLAVPGSSMGFARFRRYLHGLADYVTTNSHTNRLLIEKAVPGLTGKVVTIYNALDLEYFSPLQGPVPAGDGRLRFVVLASHQLKKNLLGLVEAAHQVVQAAPELDFTIEWFGRFDAGKNGPGDTGPFEQAKRRIETFRIQDRFIFSEPTSDVAAVYRRADALILPSFYEGLPNVVCEAMACGRPVLMSNVCDAENLVREGDNGFLFDPRDPADMARAILRFAALSGDDRKLMGEKSRKRAVILFNPERFAAHYRRVLESAMRREQTIIPHWCESIPQSAIRMIENEK, MGSDKIHHHHHHMMSGLVYRKRRRQNMTALERSWFEEAQQSMHGWDFSHLAGRWQTADLPWDYAALVREHLSADDRWLDIDTGGGELMGRFNPQPALTAVTEGWQPNIELLKQTVVKKGITLYPDAAEQLTAVPNSTFDIVTNSHGAMPVKRIAEVLKPGGRFVTQQVGATNNYALSRFFDEHYETAYPDNQLLTVMAQMQAAGFEILRAEQAYAALSFTDVGAIVYYATVIPWEFPHFDVARMLPKLHQLQSLLAINGRVTTFEDRFMIIARKLARRD, MGSDKIHHHHHHMMSKYPLLGMTLIELQSLVKRLGMPGFAAKQIASWLYDKKVTSIDEMTNLSLKYRELLKQNYEVGAEAPVEEMRSVDGTVKYLYPVGENHFVESVYIPDDERATLCISSQVGCKMNCKFCMTGKQGYSANLTAHQIINQIHSLPERDKLTNVVMMGMGEPLDNLEEVLKALDILTGSYGYAWSPKRITVSTVGLRKGLRRFIEESDCHLAISLHSPVTAQRAELMPAEKAFSITEMVELLKNYDFSKQRRLSFEYIVFKGLNDSQVYAKELLKLLRGLDCRMNLIRFHSIPGVALEGADMDTMTRFRDYLTTHGLFTTIRASRGEDIFAACGMLSTAKQEENNKS, MGSDKIHHHHHHMMSMKIFETTAPHPEASLLTAFSKNALDRFAEKRTEECVAEALKVDGTHIFAFSGNRLVLKHDEQVIDPLFSAYELAELQPDFDNAVLLGYRETGEPRIAVPVAVAEDQLASHYKLADARTLYRDHLLDEELLSEVAQAVSLTHWNADNRFCGRCGGTMEQRIGGYKRICASCSHTIFPRTDPVVIMMTIDIERDLCLLGRGAHFASGMYSCLAGFVEPGETIEQAVRRETHEESGVEIGRVRYHASQPWPMPHTLMIGCYAEALSSDIARDEIELEDCRWFTREEVAKMLEAPAGEGFSAPPIGAIAHRLMRDWVEWPE, MGSDKIHHHHHHMNADIKISFIDNIDKISASDWQNLNNSPCPFLRYNFFNALEKSESASAKQGWQAHHLVATNNNDVTAVMPMYLKSHSWGEYVFDWDWADAFKRNDIDYYPKLVATIPFTPVSSDKLLTSQGHVNELFEPLIEHCQQENINSWHILYCNEIRTALPEDVYQRNTVQFHWFNRDYETFDDFLNTFTSRKRKNTRKERLSIIEQEIDIRQLKNNEISQQDLEFFYLTYQLTYLKRGHQPHLSYEFFKQIVADMADNILLIIASHEQEDIACALFFYDDSQLYGRYWGCTKHYNNLHFELCYYRGIEFCIQNKLQSFNPGTQGEHKIQRGFEPVLTYSYHWVKHVPFRMAIKNFCQQEQQHMLTYQEQCQQVLPFRKI, MGSDKIHHHHHHMNAVPKDEMTPLERMAAFAAGKPYDRIPCSSFSGETACHFIGTTVSEYRHSAKLMARVETVTYKMFGHDGAGVGPGFLALAEAMGTELKYPEDNIPFVANPVLKNWDDFDKLEPADPHKDGKLPIYLEALAMIKDAIGDEVPIGSSVGGPFTTAALVRGTENFLKDLRRNPEMAHRLLQLVTNTTLNYIDAVMDMGCSVSIGDPTASGSLLSVKQFREFAKPYLSKLADRVIERTGKGPMLHICGDSTPIWSDMADTGAPTLSLDNVIDLAEAKKVVGERVCIMGNVKPIDTIMKGSHQQIEAEVKECLRKAYDSPKGFILAVGCQVPLGTTADNFMCFMNAARKYGRYPLNPDNFI, MGSDKIHHHHHHMNEAAKQLYITQPSLSNAVRNLETEMGIQIFIRNPKGITLTKDGMEFLSYARQILEQTALLEERYKGDNTSRELFSVSSQHYAFVVNAFVALFNGTDMTQYELFLRETRTWEIIDDVKNFRSEIGVLFLNSYNRDVLTKLFDDNSLIATTLFTTTPHIFVSKSNPLANRKKLNMKDLEDYPYLSYDQGLHNSFYFSEEMMSQIPHPKSIVVSDRATLFNLMIGLDGYTVATGILNSKLNGDEIVAIPLDVDDVIDIVYIRHDKANLSKMGQKFIDYLLEEVSFNHKNKQS
